2 molecules from patent US20120115830A1 (QUEEN S UNIVERSITY OF BELFAST, published 2012) can be followed below.

Assay [1] addresses T1, XAP3 cloned in-frame into pACT plasmid (UniProt Q9BYM8 1-510).
T1 sequence (looked up): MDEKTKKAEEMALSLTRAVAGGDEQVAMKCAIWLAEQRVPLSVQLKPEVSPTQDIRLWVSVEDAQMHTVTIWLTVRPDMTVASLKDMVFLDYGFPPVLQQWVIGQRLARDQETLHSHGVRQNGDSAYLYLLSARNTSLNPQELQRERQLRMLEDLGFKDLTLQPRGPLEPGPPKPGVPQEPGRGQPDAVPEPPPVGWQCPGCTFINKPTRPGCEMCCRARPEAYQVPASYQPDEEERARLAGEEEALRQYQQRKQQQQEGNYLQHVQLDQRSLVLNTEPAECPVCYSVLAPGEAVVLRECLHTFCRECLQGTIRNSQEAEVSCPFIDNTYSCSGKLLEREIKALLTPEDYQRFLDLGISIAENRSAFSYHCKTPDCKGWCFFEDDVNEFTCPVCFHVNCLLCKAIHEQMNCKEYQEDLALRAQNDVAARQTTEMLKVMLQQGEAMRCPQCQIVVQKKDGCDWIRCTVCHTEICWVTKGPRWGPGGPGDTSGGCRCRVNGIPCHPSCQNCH
The assay is described as follows: cell-based or functional assay.

The target in assay [2] is T2, USP19 cloned in-frame into pACT plasmid (UniProt O94966 1-1318).
T2 sequence (looked up): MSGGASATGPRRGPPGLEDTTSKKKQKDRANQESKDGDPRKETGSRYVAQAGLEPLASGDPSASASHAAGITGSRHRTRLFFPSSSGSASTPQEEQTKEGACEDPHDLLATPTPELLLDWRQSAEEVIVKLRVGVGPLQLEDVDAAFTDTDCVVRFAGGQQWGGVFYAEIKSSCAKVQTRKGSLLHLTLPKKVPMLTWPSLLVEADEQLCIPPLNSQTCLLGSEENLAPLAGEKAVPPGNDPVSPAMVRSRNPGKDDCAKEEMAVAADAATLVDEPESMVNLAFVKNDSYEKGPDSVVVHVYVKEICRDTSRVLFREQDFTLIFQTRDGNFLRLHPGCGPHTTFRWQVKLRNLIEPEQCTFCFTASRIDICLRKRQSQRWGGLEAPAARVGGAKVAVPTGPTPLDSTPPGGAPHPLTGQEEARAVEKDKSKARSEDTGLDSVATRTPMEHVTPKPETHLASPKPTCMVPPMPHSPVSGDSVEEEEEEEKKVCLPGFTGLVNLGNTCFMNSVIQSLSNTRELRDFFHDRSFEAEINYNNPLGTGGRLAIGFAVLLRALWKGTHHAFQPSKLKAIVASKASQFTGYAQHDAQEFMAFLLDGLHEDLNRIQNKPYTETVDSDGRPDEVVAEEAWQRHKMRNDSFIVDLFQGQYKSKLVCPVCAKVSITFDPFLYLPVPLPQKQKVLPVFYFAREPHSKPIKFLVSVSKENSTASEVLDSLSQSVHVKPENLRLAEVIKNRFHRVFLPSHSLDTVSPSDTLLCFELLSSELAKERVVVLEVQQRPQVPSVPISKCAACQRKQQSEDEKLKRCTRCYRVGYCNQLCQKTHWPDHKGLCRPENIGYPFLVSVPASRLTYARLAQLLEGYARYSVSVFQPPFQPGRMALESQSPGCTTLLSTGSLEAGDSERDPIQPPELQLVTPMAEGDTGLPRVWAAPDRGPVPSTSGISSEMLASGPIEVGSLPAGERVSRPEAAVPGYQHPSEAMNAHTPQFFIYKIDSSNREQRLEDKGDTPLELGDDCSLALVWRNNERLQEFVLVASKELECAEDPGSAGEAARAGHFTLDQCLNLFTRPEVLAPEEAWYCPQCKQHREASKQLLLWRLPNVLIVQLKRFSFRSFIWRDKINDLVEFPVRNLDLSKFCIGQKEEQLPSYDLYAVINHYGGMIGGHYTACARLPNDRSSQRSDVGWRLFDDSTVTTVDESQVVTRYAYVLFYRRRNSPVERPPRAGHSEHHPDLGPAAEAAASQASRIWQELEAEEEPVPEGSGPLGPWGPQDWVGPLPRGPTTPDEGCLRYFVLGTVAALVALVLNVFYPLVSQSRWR
The experiment in a line: cell-based or functional assay.

The target in assay [3] is T1, XAP3 cloned in-frame into pACT plasmid. The assay is described as follows: mammalian two-hybrid (firefly luciferase) in L132 cells.
Experimental: In order to confirm the interactions detected using the yeast two-hybrid system and determine that the interaction can take place in a biologically relevant model, the Checkmate Mammalian Two-Hybrid System (Promega, Cat no. E2440) was used. Full length FKBPL and a variety of FKBPL mutants were cloned ‘in-frame’ into pBIND plasmid according to manufacturer's instructions. XAP3 and USP19 were cloned ‘in-frame’ into pACT plasmid according to manufacturer's instructions. 2×10⁴ L132 cells were plated in triplicate into a 96 well plate for each transfection condition and incubated overnight at 37° C. with MEM containing 10% FCS. FKBPL, XAP3 and USP19 plasmids were transfected into cells using Lipofectamine Plus (Invitrogen, Cat no.) and incubated at 37° C. for 24 h. The plate was allowed to equilibrate to room temperature then 75 μl room temperature Dual-Glo Luciferase Reagent (Promega, Cat no. E2920) was added to each well, mixed thoroughly and wrapped in tinfoil. After 15 minutes incubation at room temperature, the Firefly luminescence was measured using a GENios platereader (Tecan). […] After 15 minutes incubation at room temperature, the Renilla luminescence was measured.
Following correction, increased firefly luminescence over self-activations controls indicated a positive interaction between the proteins.

B1: Full length FKBPL cloned in-frame into pBIND plasmid (other, not shown: large carriers)
chain: METPPVNTIGEKDTSQPQQEWEKNLRENLDSVIQIRQQPRDPPTETLELEVSPDPASQILEHTQGAEKLVAELEGDSHKSHGSTSQMPEALQASDLWYCPDGSFVKKIVIRGHGLDKPKLGSCCRVLALGFPFGSGPPEGWTELTMGVGPWREETWGELIEKCLESMCQGEEAELQLPGHSGPPVRLTLASFTQGRDSWELETSEKEALAREERARGTELFRAGNPEGAARCYGRALRLLLTLPPPGPPERTVLHANLAACQLLLGQPQLAAQSCDRVLEREPGHLKALYRRGVAQAALGNLEKATADLKKVLAIDPKNRAAQEELGKVVIQGKNQDAGLAQGLRKMFG
Consider B1, for which the entries for the “induction of firefly luminescence” value in assay [1] and in assay [2] were 20 fold and 10 fold, respectively.

B2: FKBPLΔ200 (other, not shown: large carriers)
chain: METPPVNTIGEKDTSQPQQEWEKNLRENLDSVIQIRQQPRDPPTETLELEVSPDPASQILEHTQGAEKLVAELEGDSHKSHGSTSQMPEALQASDLWYCPDGSFVKKIVIRGHGLDKPKLGSCCRVLALGFPFGSGPPEGWTELTMGVGPWREETWGELIEKCLESMCQGEEAELQLPGHSGPPVRLTLASFTQGRDSWE
Take B2: the binding result in assay [3] is “no binding”.
